According to publication PMC10180154:

Experiments:
[1] = target: T1, LRP6 (recombinant human LRP-6, Fc chimera) (Homo sapiens) (UniProt O75581); test: SPR; settings: CE-LIF: incubation pH 8.0, 0.155% glutathione, 0.395% Tris-HCl; running buffer 50 mM borate pH 7.6, 20 kV, 25 C (CE-SELEX conditions). SPR: PBST pH 7.4, 0.05% …
T1 sequence: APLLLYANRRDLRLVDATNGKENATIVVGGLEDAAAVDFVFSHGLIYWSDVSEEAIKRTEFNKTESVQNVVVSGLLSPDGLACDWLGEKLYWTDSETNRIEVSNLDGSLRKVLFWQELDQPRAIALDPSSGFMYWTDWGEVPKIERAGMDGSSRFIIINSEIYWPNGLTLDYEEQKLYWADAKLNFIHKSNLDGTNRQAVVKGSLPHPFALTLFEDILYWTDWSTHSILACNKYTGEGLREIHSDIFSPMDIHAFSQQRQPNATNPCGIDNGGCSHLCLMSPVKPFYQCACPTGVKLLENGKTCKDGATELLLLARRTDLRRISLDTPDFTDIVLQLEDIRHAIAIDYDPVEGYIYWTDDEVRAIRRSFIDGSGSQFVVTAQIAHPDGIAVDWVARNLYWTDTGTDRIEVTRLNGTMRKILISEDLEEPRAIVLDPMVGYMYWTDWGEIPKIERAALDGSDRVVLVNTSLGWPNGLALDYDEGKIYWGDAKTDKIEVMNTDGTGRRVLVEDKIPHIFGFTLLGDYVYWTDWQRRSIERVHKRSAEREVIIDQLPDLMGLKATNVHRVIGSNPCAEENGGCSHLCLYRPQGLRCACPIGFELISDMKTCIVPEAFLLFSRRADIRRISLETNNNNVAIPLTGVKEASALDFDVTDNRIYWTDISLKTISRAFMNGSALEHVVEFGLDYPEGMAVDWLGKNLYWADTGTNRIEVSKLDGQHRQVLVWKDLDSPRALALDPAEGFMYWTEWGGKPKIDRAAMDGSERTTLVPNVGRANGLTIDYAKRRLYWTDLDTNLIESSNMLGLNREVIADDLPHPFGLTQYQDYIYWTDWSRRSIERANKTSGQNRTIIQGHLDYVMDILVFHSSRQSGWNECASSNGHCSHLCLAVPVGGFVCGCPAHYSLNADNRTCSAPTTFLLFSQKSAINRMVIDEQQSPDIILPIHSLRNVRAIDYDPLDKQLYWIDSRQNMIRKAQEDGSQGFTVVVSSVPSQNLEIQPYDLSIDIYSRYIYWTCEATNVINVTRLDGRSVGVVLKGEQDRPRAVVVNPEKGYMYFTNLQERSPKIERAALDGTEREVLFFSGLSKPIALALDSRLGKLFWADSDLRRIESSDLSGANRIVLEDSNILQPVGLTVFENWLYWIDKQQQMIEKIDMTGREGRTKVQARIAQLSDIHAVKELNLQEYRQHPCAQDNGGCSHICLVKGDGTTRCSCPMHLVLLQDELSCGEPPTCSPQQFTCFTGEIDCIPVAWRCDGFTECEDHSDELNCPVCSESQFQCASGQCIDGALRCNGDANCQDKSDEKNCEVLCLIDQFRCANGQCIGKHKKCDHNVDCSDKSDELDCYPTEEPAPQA

[2] = target: T1, LRP6 (recombinant human LRP-6, Fc chimera) (Homo sapiens); test: CE-LIF (NECEEM); settings: CE-LIF: incubation pH 8.0, 0.155% glutathione, 0.395% Tris-HCl; running buffer 50 mM borate pH 7.6, 20 kV, 25 C (CE-SELEX conditions). SPR: PBST pH 7.4, 0.05% …

Row | Sequence | Kd [1] | Kd [2]
1 | AGCAGCACAGAGGTCAGATGCCGCAGGCAGCTGCCATTAGTCTCTATCCGTGACGGTATGCCTATGCGTGCTACCGTGAA [AptLRP6-A1] | 0.0134 µM | 0.118 µM
2 | AGCAGCACAGAGGTCAGATGCGACTTGCCTATCGGCATGACACAATCTTTTGGAGCGTAACCTATGCGTGCTACCGTGAA [AptLRP6-A4] | 0.051 µM | 0.661 µM
3 | AGCAGCACAGAGGTCAGATGGCAGCTAAGCAGGCGGCTCACAAAACCATTCGCATGCGGCCCTATGCGTGCTACCGTGAA [AptLRP6-A3] | 0.0257 µM | 0.105 µM
4 | AGCAGCACAGAGGTCAGATGGCCACATTAGTCTCACCACTACCTGCGTACCTACCGCCGCCCTATGCGTGCTACCGTGAA [AptLRP6-A2] | 0.173 µM | 1.28 µM
